The values below come from PMC9798557 (Journal of Hematology & Oncology, 2022).

What is called Kd is the concentration at which binding is half-saturated. A high value points to weaker binding.

The target of this experiment is T1, human CD38 (Homo sapiens, UniProt P28907).
T1 construct: CD38, human; Used for both the SPR and the cryo-EM complex; probably a soluble extracellular form
Description: SPR; Biacore 8 K. Particulars: both partners purified. In general terms: In SPR one partner is held on a chip, and binding of the other changes the refractive index at the surface.

B1: daratumumab (antibody, V domains shown)
VH: EVQLLESGGGLVQPGGSLRLSCAVSGFTFNSFAMSWVRQAPGKGLEWVSAISGSGGGTYYADSVKGRFTISRDNSKNTLYLQMNSLRAEDTAVYFCAKDKILWFGEPVFDYWGQGTLVTVSS
VL: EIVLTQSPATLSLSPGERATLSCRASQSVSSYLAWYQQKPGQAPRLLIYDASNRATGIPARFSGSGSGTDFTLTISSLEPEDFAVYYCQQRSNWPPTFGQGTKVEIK
notes: heavy chain of daratumumab; light chain of daratumumab; Marketed anti-CD38 mAb used as a comparator
B1 came in with a Kd of 3.84 nM.
